From patent publication US20080096222

Key:
[1] = molecular target: H3-GST with the mutation K4A
[2] = molecular target: H3-GST with the mutation R2A

B1: myc-tagged human haspin (protein)
chain: AASLPGPGSRLFRTYGAADGRRQRRPGREAAQWFPPQDRRRFFNSSGSSDASIGDPSQSDDPDDPDDPDFPGSPVRRRRRCPGGRVPKDRPSLTVTPKRWKLRARPSLTVTPRRLGLRARPPQKCSTPCGPLRLPPFPSRDSGRLSPDLSVCGQPRDGDELGISASLFSSLASPCPGSPTPRDSVISIGTSACLVAASAVPSDLHLPEVSLDRASLPCSQEEATGGAKDTRMVHQTRASLRSVLFGLMNSGTPEDSEFRADGKNMRESCCKRKLVVGNGPEGPGLSSTGKRRATGQDSCQERGLQEAVRREHQEASVPKGRIVPRGTDRLERTRSSRKSKHQEATETSLLHSHRFKKGQKLGKDSFPTQDLTPLQNACFWTKTRASFSFHKKKIVTDVSEVCSIYTTATSLSGSLLSECSNRPVMNRTSGAPSSWHSSSMYLLSPLNTLSISNKKASDAEKVYGECSQKGPVPFSHCLPTEKLQRCEKIGEGVFGEVFQTIADHTPVAIKIIAIEGPDLVNGSHQKTFEEILPEIIISKELSLLSGEVCNRTEGFIGLNSVHCVQGSYPPLLLKAWDHYNSTKGSANDRPDFFKDDQLFIVLEFEFGGIDLEQMRTKLSSLATAKSILHQLTASLAVAEASLRFEHRDLHWGNVLLKKTSLKKLHYTLNGKSSTIPSCGLQVSIIDYTLSRLERDGIVVFCDVSMDEDLFTGDGDYQFDIYRLMKKENNNRWGEYHPYSNVLWLHYLTDKMLKQMTFKTKCNTPAMKQIKRKIQEFHRTMLNFSSATDLLCQHSLFK
In the case of B1, the “phosphorylation of H3-GST by haspin (in vitro kinase assay)” value [1] is reported as “substantially reduced phosphorylation of H3-GST by haspin” and the “phosphorylation of H3-GST by haspin (in vitro kinase assay)” value [2] is reported as “substantially reduced phosphorylation of H3-GST by haspin”.
